The target of this test is sonic hedgehog protein (SHH), endogenous in rat MPG/CN organ culture (rat) (UniProt Q63673). Kind of test: cell-based or functional assay.
Chain of sonic hedgehog protein (SHH), endogenous in rat MPG/CN organ culture (rat) (Q63673 25-198 limits assumed): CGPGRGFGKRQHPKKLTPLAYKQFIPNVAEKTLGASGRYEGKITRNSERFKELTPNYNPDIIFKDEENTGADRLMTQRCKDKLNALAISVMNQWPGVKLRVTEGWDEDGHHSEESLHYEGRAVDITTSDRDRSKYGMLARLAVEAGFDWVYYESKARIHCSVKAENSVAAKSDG

The substance 5E1 SHH inhibitor (antibody) yielded a neurite formation (growth cones per mm) in uninjured MPG/CN organ culture, three days of 86 % reduction and a neurite formation (growth cones per mm) in uninjured MPG/CN organ culture, three days (fold reduction) of 7.3.

Values taken from patent US20190367572A1.
